T1: CitGATA7 (Citrus, UniProt A0ACB8JKI3 1-185)
T1 sequence: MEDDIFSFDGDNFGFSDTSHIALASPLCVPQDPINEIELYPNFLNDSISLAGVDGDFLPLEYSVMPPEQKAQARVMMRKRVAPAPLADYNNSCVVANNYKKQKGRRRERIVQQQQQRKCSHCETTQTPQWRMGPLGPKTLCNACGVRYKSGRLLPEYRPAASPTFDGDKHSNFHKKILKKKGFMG


Columns and labels:
CitGATA7 [1] = target: T1, CitGATA7; test: EMSA; attenuated dose-dependently by unlabeled WT probe; LightShift Chemiluminescent EMSA kit (Thermo), manufacturer's instructions; buffer, salt, pH and temperature not stated; details: protein: recombinant; tags: His (pET-32a); label: 3'-biotin (both strands); blunt
CitGATA7 [2] = target: T1, CitGATA7; test: EMSA; LightShift Chemiluminescent EMSA kit (Thermo), manufacturer's instructions; buffer, salt, pH and temperature not stated; details: protein: recombinant; tags: His (pET-32a); label: 3'-biotin (both strands); blunt

| Binder | binding result (CitGATA7 [1]) | binding result (CitGATA7 [2]) |
| --- | --- | --- |
| CitIDH1 promoter probe WT (dsDNA) DNA 1: CATTAAATTCCACATCATCTAATATG DNA 2: CATATTAGATGATGTGGAATTTAATG | binds | – |
| CitIDH1 promoter probe mutant (dsDNA) DNA 1: CATTAAATTCCATTTTTTCTAATATG DNA 2: CATATTAGAAAAAATGGAATTTAATG | – | no binding |
| CitACO3 promoter probe mutant (dsDNA) DNA 1: TCCCATAAAAAACCCCCCTAATAATAAAAG DNA 2: CTTTTATTATTAGGGGGGTTTTTTATGGGA | – | no binding |
| CitGS1 promoter probe WT (dsDNA) DNA 1: GCACACCATCTCGATCAGGTGGTAATTTTG DNA 2: CAAAATTACCACCTGATCGAGATGGTGTGC | binds | – |
| CitGS1 promoter probe mutant (dsDNA) DNA 1: GCACACCATCTCAAAAAGGTGGTAATTTTG DNA 2: CAAAATTACCACCTTTTTGAGATGGTGTGC | – | no binding |
| CitACO3 promoter probe WT (dsDNA) DNA 1: TCCCATAAAAAAAGATCATAATAATAAAAG DNA 2: CTTTTATTATTATGATCTTTTTTTATGGGA | binds | – |

Reference: PMC11786515, “CitGATA7 interact with histone acetyltransferase CitHAG28 to promote citric acid degradation by regulating the glutamine synthetase pathway in citrus”
